By Kd is commonly meant a measure of binding affinity in units of concentration. A lower Kd goes with a tighter complex. For orientation: koff means the rate constant with which the complex falls apart. A high value points to a short-lived complex. A word on the kon: it is the rate constant with which the complex forms.

One assay deals with T1, BMP5 (UniProt P22003 317-454, limits assumed).
T1 sequence (looked up): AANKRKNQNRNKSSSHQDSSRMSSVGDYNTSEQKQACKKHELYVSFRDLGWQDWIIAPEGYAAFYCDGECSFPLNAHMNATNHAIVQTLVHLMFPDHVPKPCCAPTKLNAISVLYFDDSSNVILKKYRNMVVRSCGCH
Description: SPR (Biacore), Fc fusion captured by anti-Fc antibody.

Assay [1] has as its target T2, GDF11 (UniProt O95390 299-407).
T2 construct: also called BMP11
T2 sequence (looked up): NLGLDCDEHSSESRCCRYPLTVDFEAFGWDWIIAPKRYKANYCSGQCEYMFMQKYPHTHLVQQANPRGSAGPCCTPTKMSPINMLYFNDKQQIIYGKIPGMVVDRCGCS
Described as above.

Assay [2] addresses T3, GDF8 (UniProt O14793 267-375).
T3 construct: also called myostatin
T3 sequence (looked up): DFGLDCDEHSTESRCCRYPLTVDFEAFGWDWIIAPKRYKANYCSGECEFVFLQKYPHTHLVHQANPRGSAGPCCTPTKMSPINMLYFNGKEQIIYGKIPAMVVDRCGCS
Described as above.

For another assay, the target named is T4, activin C (UniProt P55103 237-352).
T4 sequence (looked up): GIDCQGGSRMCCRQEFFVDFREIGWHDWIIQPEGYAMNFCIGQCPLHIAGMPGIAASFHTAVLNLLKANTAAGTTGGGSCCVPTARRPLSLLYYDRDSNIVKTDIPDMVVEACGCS
The assay is described as above.

The target in assay [3] is T5, GDF3 (UniProt Q9NR23 251-364).
T5 sequence (looked up): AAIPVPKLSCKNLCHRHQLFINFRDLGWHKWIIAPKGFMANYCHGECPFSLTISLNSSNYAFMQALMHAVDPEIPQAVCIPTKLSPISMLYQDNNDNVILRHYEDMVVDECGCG
The description is as above.

For assay [4], the target named is T6, BMP9 (UniProt Q9UK05 320-429).
T6 construct: also called GDF2
T6 sequence (looked up): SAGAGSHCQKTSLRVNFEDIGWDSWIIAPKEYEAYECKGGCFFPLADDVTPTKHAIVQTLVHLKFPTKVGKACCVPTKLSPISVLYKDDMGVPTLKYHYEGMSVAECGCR
Described as above.

Another assay has as its target T7, activin AC (UniProt P08476 311-426; P55103 237-352).
T7 construct: Heterodimer of beta A and beta C subunits
T7 sequence (looked up) 1: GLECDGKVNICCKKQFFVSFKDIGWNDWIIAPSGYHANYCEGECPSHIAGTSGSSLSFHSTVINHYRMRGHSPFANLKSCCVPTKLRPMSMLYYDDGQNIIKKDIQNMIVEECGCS
T7 sequence (looked up) 2: T4 sequence (looked up)
The description is as above.

The target in assay [5] is T8, BMP10 (UniProt O95393 317-424).
T8 sequence (looked up): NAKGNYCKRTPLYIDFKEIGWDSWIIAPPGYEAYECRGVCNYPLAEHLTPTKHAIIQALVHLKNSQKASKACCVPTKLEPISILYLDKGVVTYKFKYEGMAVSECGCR
Described as above.

The target in assay [6] is T9, activin B (UniProt P09529 293-407).
T9 sequence (looked up): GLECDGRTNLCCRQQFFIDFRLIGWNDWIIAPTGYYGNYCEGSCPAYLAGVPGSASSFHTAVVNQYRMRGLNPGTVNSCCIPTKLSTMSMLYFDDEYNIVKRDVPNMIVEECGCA
Described as above.

Assay [7] concerns the target T10, activin A (UniProt P08476 311-426).
T10 sequence (looked up): T7 sequence (looked up) 1
Described as above.

The target in assay [8] is T11, BMP6 (UniProt P22004 375-513, limits assumed).
T11 sequence (looked up): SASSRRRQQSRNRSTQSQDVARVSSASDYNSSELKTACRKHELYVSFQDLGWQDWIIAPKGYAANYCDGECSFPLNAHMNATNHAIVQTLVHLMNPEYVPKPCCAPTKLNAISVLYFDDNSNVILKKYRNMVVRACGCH
The description is as above.

The target of assay [9] is T2, GDF11. Description: SPR (Biacore), Fc fusion captured by anti-Fc antibody, 37 C. For orientation: In SPR one partner is held on a chip, and binding of the other changes the refractive index at the surface.
The target of assay [10] is T3, GDF8. The assay is described as above.
Assay [11] has as its target T5, GDF3. Described as above.
Assay [12] has as its target T6, BMP9. The assay is described as above.
Assay [13] deals with T8, BMP10. Described as above.
The target of assay [14] is T9, activin B. The assay is described as above.
Assay [15] addresses T10, activin A. The description is as above.
Assay [16] deals with T11, BMP6. The assay is described as above.
Assay [17] has as its target T8, BMP10. The description is as above. The source holds these as a separate data set.
Assay [18] deals with T10, activin A. The assay is described as above. The source holds these as a separate data set.
The target of assay [19] is T2, GDF11. Put plainly: not described.

Changes are numbered by the printed parent chain. Names may count otherwise. Some results are limits rather than exact numbers.

B1: ActRIIB-Fc:ALK7-Fc heterodimer (Fc fusion)
chain 1: GRGEAETRECIYYNANWELERTNQSGLERCEGEQDKRLHCYASWRNSSGTIELVKKGCWLDDFNCYDRQECVATEENPQVYFCCCEGNFCNERFTHLPEAGGPEVTYEPPPTAPT
chain 2: ELSPGLKCVCLLCDSSNFTCQTEGACWASVMLTNGKEQVIKSCVSLPELNAQVFCHSSNNVTKTECCFTDFCNNITLHLPTASPNAPKLGPME
In the case of B1, the Kd with BMP5 is 57000 pM; in the assay with GDF11 [1] it was 8 pM; in the assay with GDF8 [2] it was 270 pM; with activin C it was 6900 pM; in the assay with GDF3 [3], 4500 pM; in the assay with BMP9 [4], above 1400 pM. Besides, the Kd in the assay with activin AC came to 220 pM; in the assay with BMP10 [5], 190 pM; in the assay with activin B [6], 17 pM; in the assay with activin A [7] it was 43 pM; with BMP6 [8], 5300 pM. Besides, the koff came out at 0.0085 s⁻¹ in the assay with BMP5; 0.00075 s⁻¹ with GDF11 [1]; 0.001 s⁻¹ in the assay with GDF8 [2]; 0.0024 s⁻¹ with activin C; 0.01 s⁻¹ in the assay with GDF3 [3]; 0.00057 s⁻¹ with activin AC. Further, the koff came out at 0.0028 s⁻¹ in the assay with BMP10 [5], 0.0002 s⁻¹ in the assay with activin B [6], 0.0019 s⁻¹ in the assay with activin A [7] and 0.0063 s⁻¹ in the assay with BMP6 [8]. Also, the kon is 150000 M⁻¹ s⁻¹ with BMP5; 9.5e+07 M⁻¹ s⁻¹ with GDF11 [1]; 3.7e+06 M⁻¹ s⁻¹ with GDF8 [2]; 350000 M⁻¹ s⁻¹ in the assay with activin C; 2.3e+06 M⁻¹ s⁻¹ in the assay with GDF3 [3]; 2.6e+06 M⁻¹ s⁻¹ with activin AC. Moreover, the kon in the assay with BMP10 [5] was 1.5e+07 M⁻¹ s⁻¹; with activin B [6], 1.2e+07 M⁻¹ s⁻¹; with activin A [7], 4.4e+07 M⁻¹ s⁻¹; in the assay with BMP6 [8] it was 1.2e+06 M⁻¹ s⁻¹.

B2: ActRIIB-Fc:ActRIIB(L79E)-Fc heterodimer (Fc fusion)
chain 1: B1 chain 1
chain 2: B1 chain 1 with L60E
Regarding B2, the Kd is 9 pM with GDF11 [9]; 150 pM in the assay with GDF8 [10]; 10000 pM with GDF3 [11]; above 2800 pM with BMP9 [12]; 42 pM in the assay with BMP10 [13]; 25 pM with activin B [14]. The results for the Kd with activin A [15] and with BMP6 [16] were 170 pM and 56 pM, respectively. In addition, the koff worked out at 0.00036 s⁻¹ in the assay with GDF11 [9]; 0.0005 s⁻¹ with GDF8 [10]; 0.0059 s⁻¹ in the assay with GDF3 [11]; 0.002 s⁻¹ with BMP10 [13]; 0.00021 s⁻¹ with activin B [14]; 0.0015 s⁻¹ in the assay with activin A [15]. The molecule further showed a dissociation rate constant (koff) in the assay with BMP6 [16] of 0.018 s⁻¹. Also, the kon in the assay with GDF11 [9] turned out to be 4e+07 M⁻¹ s⁻¹; with GDF8 [10] it was 3.4e+06 M⁻¹ s⁻¹; with GDF3 [11] it was 580000 M⁻¹ s⁻¹; with BMP10 [13] it was 4.8e+07 M⁻¹ s⁻¹; with activin B [14], 8.3e+06 M⁻¹ s⁻¹; with activin A [15], 8.8e+06 M⁻¹ s⁻¹. This molecule had an association rate constant (kon) in the assay with BMP6 [16] of 3.3e+08 M⁻¹ s⁻¹. Also, the “fold faster off-rate than ActRIIB-Fc homodimer” value in the assay with BMP10 [17] and with activin A [18] was around 10 fold each time.

B3: ActRIIB-Fc with C-terminal tail (A64 background) (Fc fusion)
chain: SGRGEAETRECIYYNANWELERTNQSGLERCEGEQDKRLHCYASWANSSGTIELVKKGCWLDDFNCYDRQECVATEENPQVYFCCCEGNFCNERFTHLPEAGGPEVTYEPPPTAPTGGGTHTCPPCPAPELLGGPSVFLFPPKPKDTLMISRTPEVTCVVVDVSHEDPEVKFNWYVDGVEVHNAKTKPREEQYNSTYRVVSVLTVLHQDWLNGKEYKCKVSNKALPVPIEKTISKAKGQPREPQVYTLPPSREEMTKNQVSLTCLVKGFYPSDIAVEWESNGQPENNYKTTPPVLDSDGSFFLYSKLTVDKSRWQQGNVFSCSVMHEALHNHYTQKSLSLSPGK
notes: Alanine at position 64; also called preferred version of ActRIIB-Fc
B3: the binding result in the assay with GDF11 [19] is listed as “binds”.

The values are drawn from patent US20240197902A1 (ACCELERON PHARMA, published 2024).
